According to the supplement of paper PMC10126150:
± gives the standard deviation of the averaged measurements.

Test system: ATP
Experiment: switch fluorescence ratio, 500 uM ATP over buffer (Cy3 cluster intensity, sum of 5 cycles each) (fold (ratio)); higher = stronger signal-on switching upon ATP binding; sequences stand for … in TCGTCGGCAGCGTCAGATGTGTATAAGAGACAGTTTTTTTTTTTTTTTTTTTTTTTTT…TC
Conditions: aptamer strand: ATP DNA aptamer (quencher-CACCTGGGGGAGTATTGCGGAGGAAGG + anchor), 100 nM annealed; ATP concentration: 500 uM
In short: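 Five buffer/ATP imaging cycles were run on Cy3-labelled switching-strand clusters on a modified Illumina MiSeq flow-cell, with NaOH stripping and re-annealing between cycles. In each cycle, clusters annealed to 100 nM quencher-labelled ATP aptamer were imaged in selection buffer, then after 15 min with 500 uM ATP at 22 °C. Per cluster, the fluorescence ratio is summed target-cycle over summed buffer-cycle Cy3 intensity, averaged per switch-domain sequence. Only clusters within 100-1000 RFU were kept.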
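Also: ATP exposure 15 min at 22 °C before imaging.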

AAGGGGGTAA
switch fluorescence ratio: 0.977 ± 0.012

AAGGGGTCTT
switch fluorescence ratio: 0.981 ± 0.027

AAGGGGTTCA
switch fluorescence ratio: 0.991 ± 0.03

AAGGGTAGAT
switch fluorescence ratio: 1.01 ± 0.038

AAGGGTAGGA
switch fluorescence ratio: 1 ± 0.013

AAGGGTAGGC
switch fluorescence ratio: 1.03 ± 0.042

AAGGGTAGTT
switch fluorescence ratio: 0.997 ± 0.028

AAGGGTATGT
switch fluorescence ratio: 0.981 ± 0.029

AAGGGTCCAC
switch fluorescence ratio: 0.9907 ± 0.0079

AAGGGTGAC
switch fluorescence ratio: 1.01 ± 0.032

AAGGGTGCGA
switch fluorescence ratio: 1.02 ± 0.04

AAGGGTGCTA
switch fluorescence ratio: 0.9787 ± 0.0016

AAGGGTGTCA
switch fluorescence ratio: 1.022 ± 0.0032

AAGGGTTAGA
switch fluorescence ratio: 0.9864 ± 0.0021

AAGGGTTTGC
switch fluorescence ratio: 0.974 ± 0.022

AAGGGTTTTT
switch fluorescence ratio: 0.994 ± 0.025

AAGGTACTAC
switch fluorescence ratio: 1.03 ± 0.065

AAGGTAGAGC
switch fluorescence ratio: 1.03 ± 0.034

AAGGTAGCAC
switch fluorescence ratio: 1.03 ± 0.011

AAGGTAGCGC
switch fluorescence ratio: 0.974 ± 0.059

AAGGTAGGGT
switch fluorescence ratio: 1.025 ± 0.0034

AAGGTAGTGT
switch fluorescence ratio: 0.989 ± 0.028

AAGGTATGGG
switch fluorescence ratio: 1.06 ± 0.073

AAGGTCATAA
switch fluorescence ratio: 1.01 ± 0.053

AAGGTCCGCG
switch fluorescence ratio: 1.08 ± 0.027

AAGGTCGCGT
switch fluorescence ratio: 0.9906 ± 0.0039

AAGGTCTTTA
switch fluorescence ratio: 1 ± 0.035

AAGGTGGGGA
switch fluorescence ratio: 1.02 ± 0.034

AAGGTGGTTG
switch fluorescence ratio: 0.969 ± 0.016

AAGGTTCGGG
switch fluorescence ratio: 0.994 ± 0.018

AAGGTTGTTG
switch fluorescence ratio: 1 ± 0.012

AAGGTTTTTT
switch fluorescence ratio: 1.01 ± 0.02

AAGTACCTAT
switch fluorescence ratio: 1.27 ± 0.058

AAGTACTTGG
switch fluorescence ratio: 1.17 ± 0.017

AAGTAGATCC
switch fluorescence ratio: 1.04 ± 0.044

AAGTAGATGG
switch fluorescence ratio: 0.991 ± 0.029

AAGTAGCCGT
switch fluorescence ratio: 1.19 ± 0.19

AAGTAGTGGG
switch fluorescence ratio: 0.96 ± 0.028

AAGTATATGG
switch fluorescence ratio: 1.03 ± 0.029

AAGTATATGT
switch fluorescence ratio: 0.998 ± 0.027

AAGTATATTG
switch fluorescence ratio: 0.991 ± 0.025

AAGTATCGAC
switch fluorescence ratio: 1.05 ± 0.023

AAGTATTATT
switch fluorescence ratio: 0.983 ± 0.03

AAGTATTTCG
switch fluorescence ratio: 0.9995 ± 0.0062

AAGTCAGCTG
switch fluorescence ratio: 0.9826 ± 0.004

AAGTCGAGTC
switch fluorescence ratio: 0.996 ± 0.018

AAGTCGCTGT
switch fluorescence ratio: 1.02 ± 0.016

AAGTCGGGGG
switch fluorescence ratio: 1 ± 0.029

AAGTCGGTGG
switch fluorescence ratio: 0.987 ± 0.07

AAGTCGGTGT
switch fluorescence ratio: 0.988 ± 0.027

AAGTCTAAGG
switch fluorescence ratio: 0.964 ± 0.05

AAGTCTGCCA
switch fluorescence ratio: 1.47 ± 0.66

AAGTGAGGCA
switch fluorescence ratio: 0.963 ± 0.06

AAGTGAGGGT
switch fluorescence ratio: 0.996 ± 0.036

AAGTGATGGG
switch fluorescence ratio: 0.988 ± 0.045

AAGTGATTTG
switch fluorescence ratio: 1.01 ± 0.018

AAGTGCGGGA
switch fluorescence ratio: 0.9967 ± 0.0086

AAGTGCTTTT
switch fluorescence ratio: 1.01 ± 0.052

AAGTGGCCGT
switch fluorescence ratio: 1.01 ± 0.041

AAGTGGGTTC
switch fluorescence ratio: 0.9824 ± 0.0052

AAGTGGTCAC
switch fluorescence ratio: 1.01 ± 0.029

AAGTGGTGCA
switch fluorescence ratio: 0.974 ± 0.013

AAGTGGTGCT
switch fluorescence ratio: 1.024 ± 0.0011

AAGTGTAGAG
switch fluorescence ratio: 1.027 ± 0.0092

AAGTGTATGC
switch fluorescence ratio: 1.01 ± 0.038

AAGTGTATGG
switch fluorescence ratio: 0.997 ± 0.0098

AAGTGTTCAG
switch fluorescence ratio: 0.982 ± 0.027

AAGTTAATTT
switch fluorescence ratio: 0.998 ± 0.021

AAGTTACTAC
switch fluorescence ratio: 1.06 ± 0.027

AAGTTAGGGA
switch fluorescence ratio: 0.919 ± 0.083

AAGTTATGCT
switch fluorescence ratio: 1 ± 0.014

AAGTTCACAA
switch fluorescence ratio: 1.01 ± 0.033

AAGTTCACCA
switch fluorescence ratio: 1.02 ± 0.018

AAGTTCTATA
switch fluorescence ratio: 1.01 ± 0.043

AAGTTGATAA
switch fluorescence ratio: 1 ± 0.035

AAGTTGATTC
switch fluorescence ratio: 0.979 ± 0.016

AAGTTGCTTG
switch fluorescence ratio: 0.989 ± 0.02

AAGTTGGAGT
switch fluorescence ratio: 1.02 ± 0.027

AAGTTGGATA
switch fluorescence ratio: 0.993 ± 0.019

AAGTTGGGCT
switch fluorescence ratio: 1.01 ± 0.025

AAGTTGGGGG
switch fluorescence ratio: 1.01 ± 0.025

AAGTTGTGGG
switch fluorescence ratio: 0.967 ± 0.043

AAGTTGTGTT
switch fluorescence ratio: 0.996 ± 0.033

AAGTTTACGC
switch fluorescence ratio: 0.983 ± 0.025

AAGTTTATAG
switch fluorescence ratio: 1.03 ± 0.0066

AAGTTTGAGT
switch fluorescence ratio: 0.982 ± 0.022

AAGTTTGATA
switch fluorescence ratio: 0.981 ± 0.058

AAGTTTGTTA
switch fluorescence ratio: 0.995 ± 0.042

AAGTTTTATG
switch fluorescence ratio: 1.03 ± 0.059

AAGTTTTGCA
switch fluorescence ratio: 1.007 ± 0.0091

AATAAACAGC
switch fluorescence ratio: 1.006 ± 0.0078

AATAAAGGTT
switch fluorescence ratio: 1.1 ± 0.18

AATAACTAGA
switch fluorescence ratio: 0.9804 ± 0.0037

AATAACTAGG
switch fluorescence ratio: 1 ± 0.025

AATAAGAGAG
switch fluorescence ratio: 1.001 ± 0.0078

AATAAGGATA
switch fluorescence ratio: 1.01 ± 0.026

AATAAGGTA
switch fluorescence ratio: 0.995 ± 0.022

AATAAGGTTG
switch fluorescence ratio: 0.982 ± 0.04

AATAAGTGGT
switch fluorescence ratio: 0.989 ± 0.023

AATAAGTTGT
switch fluorescence ratio: 0.999 ± 0.035

AATAATAGCC
switch fluorescence ratio: 1.01 ± 0.042

AATAATCGCC
switch fluorescence ratio: 1 ± 0.05

AATAATCGGT
switch fluorescence ratio: 0.975 ± 0.035

AATAATGCGG
switch fluorescence ratio: 0.9969 ± 0.0071

AATAATTTGG
switch fluorescence ratio: 0.978 ± 0.012

AATACCATTT
switch fluorescence ratio: 1.01 ± 0.035

AATACGGGAC
switch fluorescence ratio: 1.303 ± 0.0093

AATACTGAGC
switch fluorescence ratio: 1.04 ± 0.053

AATACTTGGG
switch fluorescence ratio: 0.966 ± 0.01

AATAGAGGTC
switch fluorescence ratio: 0.988 ± 0.013

AATAGATTCG
switch fluorescence ratio: 0.982 ± 0.017

AATAGCTCGG
switch fluorescence ratio: 0.9867 ± 0.0047

AATAGGATCG
switch fluorescence ratio: 1.01 ± 0.045

AATAGGCTGG
switch fluorescence ratio: 1.03 ± 0.013

AATAGGGACC
switch fluorescence ratio: 1.07 ± 0.089

AATAGGGAGC
switch fluorescence ratio: 0.997 ± 0.041

AATAGGGATT
switch fluorescence ratio: 0.984 ± 0.019

AATAGGTGTT
switch fluorescence ratio: 1.07 ± 0.015

AATAGGTTTT
switch fluorescence ratio: 1.02 ± 0.011

AATAGTTGGA
switch fluorescence ratio: 0.9846 ± 0.0064

AATAGTTGGG
switch fluorescence ratio: 1.03 ± 0.015

AATATAAAGC
switch fluorescence ratio: 1.012 ± 0.0028

AATATATGCA
switch fluorescence ratio: 0.991 ± 0.034

AATATCAGGA
switch fluorescence ratio: 1.026 ± 0.0083

AATATGATTC
switch fluorescence ratio: 0.992 ± 0.025

AATATGCTTT
switch fluorescence ratio: 1.006 ± 0.0048

AATATGGAGC
switch fluorescence ratio: 1.08 ± 0.14

AATATGGGT
switch fluorescence ratio: 1 ± 0.034

AATATGGTTT
switch fluorescence ratio: 0.966 ± 0.02

AATATGTGGG
switch fluorescence ratio: 0.975 ± 0.024

AATATGTTCT
switch fluorescence ratio: 1.02 ± 0.014

AATATTACAT
switch fluorescence ratio: 1.03 ± 0.034

AATATTACTA
switch fluorescence ratio: 1.007 ± 0.0041

AATATTCGTT
switch fluorescence ratio: 0.997 ± 0.039

AATATTGAAG
switch fluorescence ratio: 1 ± 0.018

AATATTGGTA
switch fluorescence ratio: 1.01 ± 0.018

AATCAAAAAT
switch fluorescence ratio: 0.949 ± 0.043

AATCAAATTA
switch fluorescence ratio: 0.985 ± 0.025

AATCAATTAA
switch fluorescence ratio: 1.001 ± 0.0016

AATCAATTTT
switch fluorescence ratio: 1.007 ± 0.0054

AATCAGTCTG
switch fluorescence ratio: 0.992 ± 0.013

AATCATAGGG
switch fluorescence ratio: 1.011 ± 0.0087

AATCATATTA
switch fluorescence ratio: 1.01 ± 0.049

AATCATGGGG
switch fluorescence ratio: 0.993 ± 0.041

AATCCATGCG
switch fluorescence ratio: 1.004 ± 0.0076

AATCCATGGC
switch fluorescence ratio: 0.98678 ± 6.8e-05

AATCCCGGGG
switch fluorescence ratio: 1.19 ± 0.21

AATCCGTTTT
switch fluorescence ratio: 1.04 ± 0.044

AATCCTTAAT
switch fluorescence ratio: 1.007 ± 0.0051

AATCCTTTTT
switch fluorescence ratio: 1.004 ± 0.0084

AATCGCACCA
switch fluorescence ratio: 1.11 ± 0.025

AATCGCTAGC
switch fluorescence ratio: 1.02 ± 0.011

AATCGCTCTT
switch fluorescence ratio: 1.007 ± 0.0062

AATCGCTTGG
switch fluorescence ratio: 0.9965 ± 0.006

AATCGCTTTG
switch fluorescence ratio: 1.014 ± 0.0029

AATCGGCGTC
switch fluorescence ratio: 1.08 ± 0.15

AATCGGCTCA
switch fluorescence ratio: 0.98074 ± 0.00017

AATCGGGCCA
switch fluorescence ratio: 0.987 ± 0.018

AATCGGGGAT
switch fluorescence ratio: 1 ± 0.012

AATCGGGGGG
switch fluorescence ratio: 0.974 ± 0.013

AATCGGGGTC
switch fluorescence ratio: 1.01 ± 0.015

AATCGGGTAG
switch fluorescence ratio: 1 ± 0.014

AATCGGGTCA
switch fluorescence ratio: 0.985 ± 0.021

AATCGGTACT
switch fluorescence ratio: 1.01 ± 0.038

AATCGGTAGG
switch fluorescence ratio: 1.01 ± 0.027

AATCGTACGT
switch fluorescence ratio: 0.959 ± 0.04

AATCGTAGTG
switch fluorescence ratio: 0.9895 ± 0.0071

AATCGTATTC
switch fluorescence ratio: 0.972 ± 0.011

AATCGTGTAG
switch fluorescence ratio: 1.04 ± 0.025

AATCGTTTTT
switch fluorescence ratio: 1.02 ± 0.12

AATCTCATAA
switch fluorescence ratio: 0.986 ± 0.034

AATCTCTGGG
switch fluorescence ratio: 0.992 ± 0.0015

AATCTGGCTG
switch fluorescence ratio: 0.991 ± 0.023

AATCTGGGGT
switch fluorescence ratio: 1 ± 0.028

AATCTTTGGA
switch fluorescence ratio: 1 ± 0.013

AATGAAAAAT
switch fluorescence ratio: 0.989 ± 0.067

AATGAAAATG
switch fluorescence ratio: 0.9804 ± 0.0089

AATGAAAGCG
switch fluorescence ratio: 1.01 ± 0.015

AATGAGCGTT
switch fluorescence ratio: 1.14 ± 0.16

AATGAGTACG
switch fluorescence ratio: 1.02 ± 0.059

AATGATATCG
switch fluorescence ratio: 1.03 ± 0.013

AATGATGGGT
switch fluorescence ratio: 0.985 ± 0.019

AATGCACAGA
switch fluorescence ratio: 1.05 ± 0.045

AATGCCTCTT
switch fluorescence ratio: 1.013 ± 0.0028

AATGCCTGCG
switch fluorescence ratio: 1.02 ± 0.034

AATGCGCCGT
switch fluorescence ratio: 1.01 ± 0.022

AATGCGTGCG
switch fluorescence ratio: 1.04 ± 0.023

AATGCTAAGA
switch fluorescence ratio: 1.01 ± 0.044

AATGCTGCGC
switch fluorescence ratio: 1.03 ± 0.056

AATGCTTCTC
switch fluorescence ratio: 1.03

AATGGAGGGG
switch fluorescence ratio: 0.978 ± 0.019

AATGGAGTTT
switch fluorescence ratio: 1 ± 0.023

AATGGATACG
switch fluorescence ratio: 1.05 ± 0.019

AATGGATGGG
switch fluorescence ratio: 0.999 ± 0.011

AATGGATTTC
switch fluorescence ratio: 1 ± 0.029

AATGGCATGG
switch fluorescence ratio: 1.02 ± 0.016

AATGGCTGGT
switch fluorescence ratio: 0.994 ± 0.017

AATGGGAAAT
switch fluorescence ratio: 0.968 ± 0.059

AATGGGAGGG
switch fluorescence ratio: 1 ± 0.032

AATGGGCAGT
switch fluorescence ratio: 0.989 ± 0.029
